Measurements as given in patent US20190127457A1 (Hoffmann-La Roche, published 2019).

Target: T1, human neonatal Fc-receptor (FcRn) (human, UniProt P55899 24-297; P61769 21-119)
T1 construct: also called human FcRn; huFcRn
Experiment: symmetric HHY-AAA mutation

T1 sequence (P55899 24-297 limits assumed, chain 1 of 2): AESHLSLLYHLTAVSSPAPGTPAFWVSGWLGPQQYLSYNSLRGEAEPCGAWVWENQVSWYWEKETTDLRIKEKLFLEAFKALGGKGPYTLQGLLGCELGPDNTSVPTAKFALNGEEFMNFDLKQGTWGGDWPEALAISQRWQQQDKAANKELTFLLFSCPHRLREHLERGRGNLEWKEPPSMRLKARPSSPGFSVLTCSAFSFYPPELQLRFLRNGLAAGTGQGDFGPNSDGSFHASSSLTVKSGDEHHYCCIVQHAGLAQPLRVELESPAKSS
T1 sequence (P61769 21-119 limits assumed, chain 2 of 2): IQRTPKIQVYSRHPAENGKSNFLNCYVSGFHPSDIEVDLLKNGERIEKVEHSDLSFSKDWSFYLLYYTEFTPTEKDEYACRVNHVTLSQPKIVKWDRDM

B1: IGF-1R 0045 (antibody, human IgG1, kappa)
light: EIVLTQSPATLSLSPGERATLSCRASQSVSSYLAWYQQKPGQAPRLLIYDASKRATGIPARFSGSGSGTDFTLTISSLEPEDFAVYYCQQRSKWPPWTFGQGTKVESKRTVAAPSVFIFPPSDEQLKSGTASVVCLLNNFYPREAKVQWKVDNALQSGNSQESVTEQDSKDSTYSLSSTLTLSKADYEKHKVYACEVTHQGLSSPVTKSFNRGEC
heavy: QVELVESGGGVVQPGRSQRLSCAASGFTFSSYGMHWVRQAPGKGLEWVAIIWFDGSSTYYADSVRGRFTISRDNSKNTLYLQMNSLRAEDTAVYFCARELGRRYFDLWGRGTLVSVSSASTKGPSVFPLAPSSKSTSGGTAALGCLVKDYFPEPVTVSWNSGALTSGVHTFPAVLQSSGLYSLSSVVTVPSSSLGTQTYICNVNHKPSNTKVDKKVEPKSCDKTHTCPPCPAPELLGGPSVFLFPPKPKDTLMISRTPEVTCVVVDVSHEDPEVKFNWYVDGVEVHNAKTKPREEQYNSTYRVVSVLTVLAQDWLNGKEYKCKVSNKALPAPIEKTISKAKGQPREPQVYTLPPSRDELTKNQVSLTCLVKGFYPSDIAVEWESNGQPENNYKTTPPVLDSDGSFFLYSKLTVDKSRWQQGNVFSCSVMHEALANHATQKSLSLSPG
notes: Roles inferred; also called <IGF-1R> IgG1 with H310A, H433A, Y436A; anti-IGF-1R IgG1 with HHY-AAA mutation
B1: no binding.
